Measurements from paper PMC10117100.

Biological target: Gluc1-E2F4 (human), Q16254
Assay: split reporter (BiFC, NanoBiT); Gaussia princeps protein complementation assay (GPCA): Gluc1 and Gluc2 N-terminal fusions co-transfected in HEK293T, luminescence of lysates after 48 h as normalized luminescence ratio (NLR); pairs count as interacting if NLR is above 5
Details: remark: other sources report otherwise

Sequence of Gluc1-E2F4 (human), Q16254 (Q16254 whole entry, the tested form may be a part): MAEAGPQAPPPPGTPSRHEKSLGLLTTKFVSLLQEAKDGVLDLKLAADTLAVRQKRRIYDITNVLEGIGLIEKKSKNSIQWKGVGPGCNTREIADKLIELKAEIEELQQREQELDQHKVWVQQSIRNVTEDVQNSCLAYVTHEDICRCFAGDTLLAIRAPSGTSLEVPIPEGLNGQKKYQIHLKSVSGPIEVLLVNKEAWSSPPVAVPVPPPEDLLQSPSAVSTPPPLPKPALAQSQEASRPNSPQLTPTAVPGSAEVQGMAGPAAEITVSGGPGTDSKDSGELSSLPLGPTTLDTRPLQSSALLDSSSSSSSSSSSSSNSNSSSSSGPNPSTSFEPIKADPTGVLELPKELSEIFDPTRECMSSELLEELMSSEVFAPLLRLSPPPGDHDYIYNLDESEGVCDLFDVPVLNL

normalized luminescence ratio (NLR): > 40
B1: Gluc2-p130, Q08999 1-1139 (natural protein)
chain: MPSGGDQSPPPPPPPPAAAASDEEEEDDGEAEDAAPPAESPTPQIQQRFDELCSRLNMDEAARAEAWDSYRSMSESYTLEGNDLHWLACALYVACRKSVPTVSKGTVEGNYVSLTRILKCSEQSLIEFFNKMKKWEDMANLPPHFRERTERLERNFTVSAVIFKKYEPIFQDIFKYPQEEQPRQQRGRKQRRQPCTVSEIFHFCWVLFIYAKGNFPMISDDLVNSYHLLLCALDLVYGNALQCSNRKELVNPNFKGLSEDFHAKDSKPSSDPPCIIEKLCSLHDGLVLEAKGIKEHFWKPYIRKLYEKKLLKGKEENLTGFLEPGNFGESFKAINKAYEEYVLSVGNLDERIFLGEDAEEEIGTLSRCLNAGSGTETAERVQMKNILQQHFDKSKALRISTPLTGVRYIKENSPCVTPVSTATHSLSRLHTMLTGLRNAPSEKLEQILRTCSRDPTQAIANRLKEMFEIYSQHFQPDEDFSNCAKEIASKHFRFAEMLYYKVLESVIEQEQKRLGDMDLSGILEQDAFHRSLLACCLEVVTFSYKPPGNFPFITEIFDVPLYHFYKVIEVFIRAEDGLCREVVKHLNQIEEQILDHLAWKPESPLWEKIRDNENRVPTCEEVMPPQNLERADEICIAGSPLTPRRVTEVRADTGGLGRSITSPTTLYDRYSSPPASTTRRRLFVENDSPSDGGTPGRMPPQPLVNAVPVQNVSGETVSVTPVPGQTLVTMATATVTANNGQTVTIPVQGIANENGGITFFPVQVNVGGQAQAVTGSIQPLSAQALAGSLSSQQVTGTTLQVPGQVAIQQISPGGQQQKQGQSVTSSSNRPRKTSSLSLFFRKVYHLAAVRLRDLCAKLDISDELRKKIWTCFEFSIIQCPELMMDRHLDQLLMCAIYVMAKVTKEDKSFQNIMRCYRTQPQARSQVYRSVLIKGKRKRRNSGSSDSRSHQNSPTELNKDRTSRDSSPVMRSSSTLPVPQPSSAPPTPTRLTGANSDMEEEERGDLIQFYNNIYIKQIKTFAMKYSQANMDAPPLSPYPFVRTGSPRRIQLSQNHPVYISPHKNETMLSPREKIFYYFSNSPSKRLREINSMIRTGETPTKKRGILLEDGSESPAKRICPENHSALLRRLQDVANDRGSH
